How the values were obtained:
[1] = target: RSV IN 1–278 (Rous sarcoma virus integrase, C-terminal truncation of 8 amino acids) (Rous sarcoma virus (Prague A)); assay: cryo-EM structure
[2] = target: RSV IN 1–278 (Rous sarcoma virus integrase, C-terminal truncation of 8 amino acids) (Rous sarcoma virus (Prague A)); assay: SEC
[3] = target: RSV IN S262R (recombinant) (Rous sarcoma virus (Prague A)); assay: not stated; CSC assembly with recombinant IN mutants (Supplementary Fig. 11)

| Substance | stoichiometry N [1] | stoichiometry N [2] | stoichiometry N [3] |
| --- | --- | --- | --- |
| RSV IN 1–278 (Rous sarcoma virus integrase, C-terminal truncation of 8 amino acids) (domain or fragment) | 8 | 8 | – |
| RSV IN S262R (recombinant) (enzyme) | – | – | 8 |

— article PMC7955051
